The target in this assay is AMEF β-gal (normally inactive β-galactosidase variant, AMEF 959) (E. coli). The assay is described as follows: cell-based or functional assay.

This is an account of results in patent US20110008774A1 (CORNELL RESEARCH FOUNDATION, published 2011).

Positions count from the first letter of the chain named.

B1: scFv13 variant S20 (scFv)
scFv: MADYKDDDDKGGSAEVQLVESGGGLVKPGGSLRLSCAASGFTFSNNSMNWVRQAPGKGLEWVSSISSSSSYIYYADFVKGRFTISRDNAKNSLYLQMNSLRAEDTAVYYCARSSTTIFGGGMDVWGRGTLVTVSSGGGGSGEGGSGGGGSQSVLTQPASVSGSPGQSITISCAGTSSDVGGYNYVSWYQQHPGKAPKLMIYEDSKRPSGVSNRFSGSKSGNTASLTISGLQAEDEADYYCSSYTTRSTRVFGGGTKLAVLGAAAEQKLISEGDLNGAAELHHHHHH
With B1, the “AMEF β-gal activation in vivo (whole cell X-gal hydrolysis, absorbance at 620 nm)” value is approximately 2 fold over wt scFv13.

B2: scFv13 variant S23 (scFv)
scFv: B1 scFv with N46Y, V62I, A89V, T115I, E142G, P192L, D203G, P207S, G272E
Take B2: the “AMEF β-gal activation in vivo (whole cell X-gal hydrolysis, absorbance at 620 nm)” value was approximately 2 fold over wt scFv13.
